Data as given in patent US20150344570A1 (published 2015).

T1: FcγRIIb (human, UniProt P31994 43-217)
T1 construct: extracellular domain; also called FcgRIIb; 2b
T1 sequence (looked up): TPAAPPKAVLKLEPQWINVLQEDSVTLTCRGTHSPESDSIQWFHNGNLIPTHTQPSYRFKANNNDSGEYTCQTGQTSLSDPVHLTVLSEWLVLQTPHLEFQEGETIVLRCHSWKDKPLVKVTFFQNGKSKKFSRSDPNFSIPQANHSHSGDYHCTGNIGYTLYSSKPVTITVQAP


Key:
[1] = biological target: T2, FcγRIIIa (human, UniProt P08637 17-208); test: SPR (Biacore), relative binding
T2 construct: extracellular domain; also called FcgRIIIa; 3a

[2] = biological target: T1, FcγRIIb; test: SPR (Biacore), relative binding
[3] = biological target: T2, FcγRIIIa; test: SPR; He/Con_3a divided by He/Con_2b (FcγRIIIa against FcγRIIb)

T2 sequence (P08637 17-208): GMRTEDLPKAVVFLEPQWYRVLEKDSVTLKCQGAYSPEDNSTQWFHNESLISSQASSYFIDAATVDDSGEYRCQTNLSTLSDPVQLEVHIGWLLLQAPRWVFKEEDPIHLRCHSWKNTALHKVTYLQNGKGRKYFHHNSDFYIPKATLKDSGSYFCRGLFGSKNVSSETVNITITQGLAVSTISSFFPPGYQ

Binder | He/Con_3a [1] | He/Con_2b [2] | He_3a/2b (IIIa/IIb) [3] [ratio]
GpH7-A5/GpH7-B3 variant S267_04F/GpL16-k0 (antibody, human IgG1, kappa, mutation in the GpH7-B3 chain only; also called He Ab) heavy 1: not shown heavy 2: not shown light: DIVMTQSPLSLPVTPGEPASISCQASESLVHSNRNTYLHWYLQKPGQSPQLLIYKVSNRFSGVPDRFSGSGSGTDFTLKISRVEAEDVGVYYCSQNTHVPPTFGQGTKVEIERTVAAPSVFIFPPSDEQLKSGTASVVCLLNNFYPREAKVQWKVDNALQSGNSQESVTEQDSKDSTYSLSSTLTLSKADYEKHKVYACEVTHQGLSSPVTKSFNRGEC | 11 % of GpH7-A5/GpH7-B3/GpL16-k0 | 48 % of GpH7-A5/GpH7-B3/GpL16-k0 | 0.23
GpH7-A5/GpH7-B3 variant V266_02A/GpL16-k0 (antibody, human IgG1, kappa, mutation in the GpH7-B3 chain only; also called He Ab) heavy 1: not shown heavy 2: not shown light: DIVMTQSPLSLPVTPGEPASISCQASESLVHSNRNTYLHWYLQKPGQSPQLLIYKVSNRFSGVPDRFSGSGSGTDFTLKISRVEAEDVGVYYCSQNTHVPPTFGQGTKVEIERTVAAPSVFIFPPSDEQLKSGTASVVCLLNNFYPREAKVQWKVDNALQSGNSQESVTEQDSKDSTYSLSSTLTLSKADYEKHKVYACEVTHQGLSSPVTKSFNRGEC | 57.4 % of GpH7-A5/GpH7-B3/GpL16-k0 | 81 % of GpH7-A5/GpH7-B3/GpL16-k0 | 0.71
GpH7-A5/GpH7-B3 variant S267_06M/GpL16-k0 (antibody, human IgG1, kappa, mutation in the GpH7-B3 chain only; also called He Ab) heavy 1: not shown heavy 2: not shown light: DIVMTQSPLSLPVTPGEPASISCQASESLVHSNRNTYLHWYLQKPGQSPQLLIYKVSNRFSGVPDRFSGSGSGTDFTLKISRVEAEDVGVYYCSQNTHVPPTFGQGTKVEIERTVAAPSVFIFPPSDEQLKSGTASVVCLLNNFYPREAKVQWKVDNALQSGNSQESVTEQDSKDSTYSLSSTLTLSKADYEKHKVYACEVTHQGLSSPVTKSFNRGEC | 66 % of GpH7-A5/GpH7-B3/GpL16-k0 | 210 % of GpH7-A5/GpH7-B3/GpL16-k0 | 0.31
GpH7-A5/GpH7-B3 variant V266_07I/GpL16-k0 (antibody, human IgG1, kappa, mutation in the GpH7-B3 chain only; also called He Ab) heavy 1: not shown heavy 2: not shown light: DIVMTQSPLSLPVTPGEPASISCQASESLVHSNRNTYLHWYLQKPGQSPQLLIYKVSNRFSGVPDRFSGSGSGTDFTLKISRVEAEDVGVYYCSQNTHVPPTFGQGTKVEIERTVAAPSVFIFPPSDEQLKSGTASVVCLLNNFYPREAKVQWKVDNALQSGNSQESVTEQDSKDSTYSLSSTLTLSKADYEKHKVYACEVTHQGLSSPVTKSFNRGEC | 114 % of GpH7-A5/GpH7-B3/GpL16-k0 | 152 % of GpH7-A5/GpH7-B3/GpL16-k0 | 0.75
GpH7-A5/GpH7-B3 variant V266_05P/GpL16-k0 (antibody, human IgG1, kappa, mutation in the GpH7-B3 chain only; also called He Ab) heavy 1: not shown heavy 2: not shown light: DIVMTQSPLSLPVTPGEPASISCQASESLVHSNRNTYLHWYLQKPGQSPQLLIYKVSNRFSGVPDRFSGSGSGTDFTLKISRVEAEDVGVYYCSQNTHVPPTFGQGTKVEIERTVAAPSVFIFPPSDEQLKSGTASVVCLLNNFYPREAKVQWKVDNALQSGNSQESVTEQDSKDSTYSLSSTLTLSKADYEKHKVYACEVTHQGLSSPVTKSFNRGEC | -0.7 % of GpH7-A5/GpH7-B3/GpL16-k0 | 0.4 % of GpH7-A5/GpH7-B3/GpL16-k0 | -1.98

Second part, the binder after the results:

He/Con_3a [1] | He/Con_2b [2] | He_3a/2b (IIIa/IIb) [3] [ratio] | Binder
14.5 % of GpH7-A5/GpH7-B3/GpL16-k0 | 49.4 % of GpH7-A5/GpH7-B3/GpL16-k0 | 0.29 | GpH7-A5/GpH7-B3 variant V266_15Y/GpL16-k0 (antibody, human IgG1, kappa, mutation in the GpH7-B3 chain only; also called He Ab) heavy 1: not shown heavy 2: not shown light: DIVMTQSPLSLPVTPGEPASISCQASESLVHSNRNTYLHWYLQKPGQSPQLLIYKVSNRFSGVPDRFSGSGSGTDFTLKISRVEAEDVGVYYCSQNTHVPPTFGQGTKVEIERTVAAPSVFIFPPSDEQLKSGTASVVCLLNNFYPREAKVQWKVDNALQSGNSQESVTEQDSKDSTYSLSSTLTLSKADYEKHKVYACEVTHQGLSSPVTKSFNRGEC
28.1 % of GpH7-A5/GpH7-B3/GpL16-k0 | 54.4 % of GpH7-A5/GpH7-B3/GpL16-k0 | 0.52 | GpH7-A5/GpH7-B3 variant V266_13S/GpL16-k0 (antibody, human IgG1, kappa, mutation in the GpH7-B3 chain only; also called He Ab) heavy 1: not shown heavy 2: not shown light: DIVMTQSPLSLPVTPGEPASISCQASESLVHSNRNTYLHWYLQKPGQSPQLLIYKVSNRFSGVPDRFSGSGSGTDFTLKISRVEAEDVGVYYCSQNTHVPPTFGQGTKVEIERTVAAPSVFIFPPSDEQLKSGTASVVCLLNNFYPREAKVQWKVDNALQSGNSQESVTEQDSKDSTYSLSSTLTLSKADYEKHKVYACEVTHQGLSSPVTKSFNRGEC
2.7 % of GpH7-A5/GpH7-B3/GpL16-k0 | 10.1 % of GpH7-A5/GpH7-B3/GpL16-k0 | 0.27 | GpH7-A5/GpH7-B3 variant V266_09D/GpL16-k0 (antibody, human IgG1, kappa, mutation in the GpH7-B3 chain only; also called He Ab) heavy 1: not shown heavy 2: not shown light: DIVMTQSPLSLPVTPGEPASISCQASESLVHSNRNTYLHWYLQKPGQSPQLLIYKVSNRFSGVPDRFSGSGSGTDFTLKISRVEAEDVGVYYCSQNTHVPPTFGQGTKVEIERTVAAPSVFIFPPSDEQLKSGTASVVCLLNNFYPREAKVQWKVDNALQSGNSQESVTEQDSKDSTYSLSSTLTLSKADYEKHKVYACEVTHQGLSSPVTKSFNRGEC
39.4 % of GpH7-A5/GpH7-B3/GpL16-k0 | 82.3 % of GpH7-A5/GpH7-B3/GpL16-k0 | 0.48 | GpH7-A5/GpH7-B3 variant V266_14T/GpL16-k0 (antibody, human IgG1, kappa, mutation in the GpH7-B3 chain only; also called He Ab) heavy 1: not shown heavy 2: not shown light: DIVMTQSPLSLPVTPGEPASISCQASESLVHSNRNTYLHWYLQKPGQSPQLLIYKVSNRFSGVPDRFSGSGSGTDFTLKISRVEAEDVGVYYCSQNTHVPPTFGQGTKVEIERTVAAPSVFIFPPSDEQLKSGTASVVCLLNNFYPREAKVQWKVDNALQSGNSQESVTEQDSKDSTYSLSSTLTLSKADYEKHKVYACEVTHQGLSSPVTKSFNRGEC
